# Where a chain is given by its changes, count along the chain named. In names and notes the source's numbering stands.
# B1: sclareol synthase from Salvia sclarea (SsSS) (Salvia sclarea) (protein)
# chain: AKMKENFKREDDKFPTTTTLRSEDIPSNLCIIDTLQRLGVDQFFQYEINTILDNTFRLWQEKHKVIYGNVTTHAMAFRLLRVKGYEVSSEELAPYGNQEAVSQQTNDLPMIIELYRAANERIYEEERSLEKILAWTTIFLNKQVQDNSIPDKKLHKLVEFYLRNYKGITIRLGARRNLELYDMTYYQALKSTNRFSNLCNEDFLVFAKQDFDIHEAQNQKGLQQLQRWYADCRLDTLNFGRDVVIIANYLASLIIGDHAFDYVRLAFAKTSVLVTIMDDFFDCHGSSQECDKIIELVKEWKENPDAEYGSEELEILFMALYNTVNELAERARVEQGRSVKEFLVKLWVEILSAFKIELDTWSNGTQQSFDEYISSSWLSNGSRLTGLLTMQFVGVKLSDEMLMSEECTDLARHVCMVGRLLNDVCSSEREREENIAGKSYSILLATEKDGRKVSEDEAIAEINEMVEYHWRKVLQIVYKKESILPRRCKDVFLEMAKGTFYAYGINDELTSPQQSKEDMKSFVF
# B2: sclareol synthase from Salvia sclarea (SsSS) (Salvia sclarea; N431Q) (protein)
# chain: B1 chain with N380Q
# B3: sclareol synthase from Salvia sclarea (SsSS) (Salvia sclarea; N431I) (protein)
# chain: B1 chain with N380I
# Substrate: C/C(=C\COP(=O)(O)OP(=O)(O)O)CC[C@@H]1[C@@]2(C)CCCC(C)(C)[C@@H]2CC[C@@]1(C)O
# Test: steady-state kinetics
# Type: biochemical, Salvia sclarea
# Conditions: mean ± SE of three experiments; assay conditions only in the supplement
Protein,Km,kcat,kcat/Km
B1,7 ± 2 µM,0.53 ± 0.04 s⁻¹,76000 M⁻¹ s⁻¹
B2,10 ± 1 µM,0.47 ± 0.02 s⁻¹,47000 M⁻¹ s⁻¹
B3,6 ± 1 µM,0.38 ± 0.02 s⁻¹,63000 M⁻¹ s⁻¹

# Reference: article PMC5921835
